These results are taken from publication PMC2901266.

Assay [1] has as its target ToLCKeV MBP-AC1 fusion protein (replication initiator protein, Rep) (Tomato leaf curl Kerala virus-[India:Kerala II:2005]).
Assay [2] concerns the target ToLCKeV MBP-AC3 fusion protein (Tomato leaf curl Kerala virus-[India:Kerala II:2005]). Briefly: sucrose gradient ultracentrifugation + SEC; 10-40% (w/v) sucrose step gradient, 25 mM Tris (pH 8.0), 250 mM NaCl, 2 mM sodium bisulphite, 0.05% Triton X-100, 35,000 rpm 20 h 4°C, against mass markers; gel filtration on Superdex 200 5/150. A general note: Size exclusion chromatography separates by hydrodynamic size, large species first.

By stoichiometry N is commonly meant a count of units in the complex or per binding partner. “ToLCKeV MBP-AC3 fusion protein (natural protein)” showed an ATPase activity of AC1 (Rep), release of Pi from [gamma-32P]ATP, with varying MBP-AC3 (increase at 0.02-0.2 pM, reduced at higher AC3: bell shaped curve); increase over Rep alone set as 100% in assay [1] of 80%. Moreover, in assay [2], the stoichiometry N is 12 to 14 mer.
